In the supplement of paper PMC10724198:
± gives the standard deviation of the averaged measurements.

tested on: Saccharomyces cerevisiae; experiment: protein stability index of tFT-peptide fusion (C-terminal peptide) (PSI (0-1 scale)); higher = more stable (slower turnover); settings: genetic background: wild type; temperature: 30 C
Procedure: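 Multiplexed protein stability (MPS) profiling in S. cerevisiae. Random 12-aa peptides (tFT-X12 library) are fused to the C-terminus of a sfGFP-mCherry tandem fluorescent timer, after mCherry and a GGGS linker. Cells are FACS-sorted into 8 mCherry/sfGFP bins and deep-sequenced. The protein stability index (PSI) is the read-weighted bin average, scaled from 0 (unstable) to 1 (stable). Only peptides with >10 reads are reported; cells were grown at 30 °C in SC-His with glucose.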
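Also: PSI is a weighted mean of sequencing reads over stability bins, variants kept only with over 10 reads, mCherry proximal and sfGFP distal, peptide attached via GGGS linker.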

Sequence | protein stability index
VIRDISAFSQVV | 0.677 ± 0.07
YYSTQTQATYRH | 0.6773 ± 0.0025
KGDWGGRGCGRH | 0.693 ± 0.021
CFPPLPPPPPPS | 0.736 ± 0.0077
PPSPPRPPTSFL | 0.608 ± 0.057
PMPPPHLLPSSS | 0.723 ± 0.024
NLLPFLGPLPRS | 0.781 ± 0.067
HCFFSVPFRSGF | 0.691 ± 0.045
YIIVSQRENRRQ | 0.758 ± 0.095
TRICFPRFPPAP | 0.703 ± 0.044
GGGLGGREPGGS | 0.742 ± 0.15
GAGAQRGCRSGG | 0.6878 ± 0.0034
SQKWKGSSVIIG | 0.723 ± 0.032
SQLGRPSLHPVR | 0.6601 ± 0.0024
FLPRGPLPPSPF | 0.595 ± 0.026
PPPAPPPLPTSP | 0.771 ± 0.095
WLGGGGTVAHSP | 0.726 ± 0.1
KNKEISQIYIKN | 0.662 ± 0.027
VSVFNFPSLFVG | 0.66 ± 0.063
YDLLLLLSLSRP | 0.644 ± 0.012
PPPPPPPPPLFP | 0.703 ± 0.022
PLGQVLRVSSDF | 0.75473 ± 0.00037
ATPYGLTPNYSG | 0.676 ± 0.15
SSVFRSYTSVLS | 0.686 ± 0.076
PPPRPHPTRLSY | 0.576 ± 0.054

Sequence | protein stability index
GRAWWVGGEGVW | 0.677 ± 0.014
PVPSPFMHRAAP | 0.702 ± 0.015
FSGFRFFLLWPW | 0.678 ± 0.085
LEPHEIKERRPL | 0.721 ± 0.066
VEEKDNNVRYVL | 0.697 ± 0.025
GNQAILGRYLSV | 0.623 ± 0.051
RRRTARVRTGQV | 0.647 ± 0.043
VFFDLALRWYGV | 0.748 ± 0.082
PPPPGPPPPSSL | 0.6914 ± 0.006
GSGGRGTVCSEG | 0.652 ± 0.015
PWWGCTLGGGWG | 0.737 ± 0.063
AGFGLRGWMIPP | 0.68838 ± 0.00018
APLPPPPDPPLP | 0.695 ± 0.025
KKNKKNKKKKKN | 0.63 ± 0.082
LPSLPPRTSPPS | 0.761 ± 0.027
LGWWWVWSWGRG | 0.668 ± 0.04
RFVGVGWRVEGG | 0.676 ± 0.019
AKKAEKQKKEKT | 0.82 ± 0.019
SKPYNSAIKDIT | 0.725 ± 0.096
RSRHPPPPLLFP | 0.707 ± 0.043
TGCGSRSSRTKT | 0.864 ± 0.021
KSLSEKSKEKGS | 0.668 ± 0.034
APAPTLPALPPL | 0.745 ± 0.026
PARPLFAPSFFT | 0.699 ± 0.047
RGGRGLAAGAWW | 0.7035 ± 0.0055

Sequence | protein stability index
SHLSRSYPGLQL | 0.742 ± 0.027
SRPATGSVTFPP | 0.694 ± 0.0098
PPLLPLLCPHSL | 0.738 ± 0.016
EVAFGLLPPHDS | 0.701 ± 0.019
GIPPFFTLCRLS | 0.57 ± 0.034
AVNADMHDKKIA | 0.7 ± 0.036
RLSSFDELSDVY | 0.729 ± 0.026
LHHPPAPPLPPP | 0.695 ± 0.018
RSSPPHLPPPSL | 0.68 ± 0.026
PALRTTRCLPLP | 0.703 ± 0.019
KQHTEQIDRRTG | 0.6635 ± 0.0036
QPLTYHPLLRRP | 0.715 ± 0.051
KKKKTKKKEQKE | 0.693 ± 0.012
HPSSLRLSSSAF | 0.697 ± 0.014
WVNGFCKKGSGH | 0.713 ± 0.015
PPVFYAPLVTER | 0.7 ± 0.035
VIPYLISSLYAV | 0.691 ± 0.13
GFSCLALFCRVD | 0.587 ± 0.019
SLRTREGSSRRE | 0.674 ± 0.23
KKKKKQKKKKRK | 0.682 ± 0.013
NYLPLCCSMLAG | 0.588 ± 0.015
PCAFSLPPLQIP | 0.7 ± 0.012
LQRPDHPTPTPP | 0.712 ± 0.017
QTGGPDPSGPPK | 0.693 ± 0.03
VFVRSTSFLFFG | 0.678 ± 0.0097

Sequence | protein stability index
HSQAPPPHPHAP | 0.719 ± 0.024
CCADPWRIARPW | 0.729 ± 0.042
WYGSYPLTLESY | 0.613 ± 0.013
GGGEKVMVVGHG | 0.709 ± 0.013
FFEVFDNYRSLV | 0.684 ± 0.051
PFSPLPGPPPPP | 0.733 ± 0.04
RTLNPHLYRLRH | 0.682 ± 0.024
GGAGSVAGVWAV | 0.673 ± 0.069
PDVFLLHASPPG | 0.66 ± 0.098
PPPPPAPPPVSI | 0.659 ± 0.071
SPLYCGLSLPSV | 0.664 ± 0.027
LPRPLTIKQVAG | 0.56 ± 0.021
RKNKQVDLCHRE | 0.676 ± 0.037
LLPPRPSSSPPS | 0.704 ± 0.026
PLLSAFPPRPFP | 0.682 ± 0.12
EPCIVCPMSRQG | 0.773 ± 0.11
VLEGAWPGAEAV | 0.722 ± 0.083
NDGLKVLKETSP | 0.675 ± 0.027
FLFGILFTSRAV | 0.5311 ± 0.0015
KKRGNYKTTESN | 0.687 ± 0.0076
KVQGGGKYPTYS | 0.699 ± 0.058
SPPLPPPVPTAP | 0.7095 ± 0.0056
LLLLDPPLPPPP | 0.684 ± 0.015
IVRENGKDVGVG | 0.506 ± 0.014
FIKTSDAVIGEK | 0.563 ± 0.017

Sequence | protein stability index
PPPPPHALSPPP | 0.664 ± 0.011
LPSSLFLCSLFC | 0.655 ± 0.026
DPRPHPPFARSP | 0.699 ± 0.026
FVDWGLFAFGCL | 0.796 ± 0.062
FAIFSGMSFGVY | 0.693 ± 0.05
LPLPTSPHPRPA | 0.61 ± 0.046
SNKATNEGNVNV | 0.68 ± 0.025
PSLSPLPPRTTS | 0.732 ± 0.048
VGACLEVWDGVR | 0.686 ± 0.024
TQLSSVVVGGRR | 0.669 ± 0.015
PPHPFPPPPPPS | 0.665 ± 0.069
EAVCHQFVELIG | 0.605 ± 0.02
CAQLVLDNHTGP | 0.69 ± 0.079
PLHSLPSRTPPS | 0.7088 ± 0.006
LVFYSSLPNFSR | 0.6815 ± 0.0024
SFPRSHPPPFPP | 0.674 ± 0.012
WILDKECFKECD | 0.654 ± 0.046
CLWGQWAVGCMG | 0.6169 ± 0.0019
AGGRGNVGGVHV | 0.679 ± 0.048
GKRHSYSIISSV | 0.668 ± 0.061
GSEISTRGVGRR | 0.6647 ± 0.0013
GSVFWVCGFFRV | 0.559 ± 0.034
LGQRFRLFVSFF | 0.468 ± 0.077
LFVYSSVALSSQ | 0.59301 ± 0.00049
VVTGVRFGVGSI | 0.697 ± 0.039

Sequence | protein stability index
GGGTVGCVVALA | 0.64 ± 0.017
SLFSLLVLPPPS | 0.706 ± 0.035
VLCLRSNRHGVF | 0.698 ± 0.015
GGGPAVEGLVGR | 0.66 ± 0.045
PPLLAPPTPLPQ | 0.674 ± 0.051
GLRPPPLRPAPP | 0.704 ± 0.08
QRGGVGWILGGV | 0.675 ± 0.034
VTPLPPPRTFLP | 0.67 ± 0.07
EKERRATCPGRK | 0.652 ± 0.051
CKLDVMSRSFVG | 0.664 ± 0.0089
DGSMRKWGQGVG | 0.575 ± 0.067
RRWAFWGAAAAR | 0.702 ± 0.013
PPPSPTPGHPQL | 0.718 ± 0.044
RGWWVLCGGGWG | 0.567 ± 0.026
LNPPFICFAWLY | 0.598 ± 0.076
VPRTPPTTSWFP | 0.682 ± 0.026
PARPIPFPQPCY | 0.538 ± 0.032
ASGASEVGACAG | 0.685 ± 0.033
GDWSYIVGIKYY | 0.626 ± 0.0078
AVPSPVTLPTTS | 0.641 ± 0.066
IGFPFRIYRFAF | 0.563 ± 0.04
PSLHRPPLLPCP | 0.674 ± 0.013
EKLRGRKKGELQ | 0.668 ± 0.036
PARCRPSSPAPL | 0.726 ± 0.016
GSVGQNLCPGSI | 0.667 ± 0.031

Sequence | protein stability index
NGSLRVVSGGFC | 0.63 ± 0.048
PVIGLSMEKARG | 0.739 ± 0.1
IWLSCCPLAFWS | 0.6896 ± 0.0065
KIYKKSKKKKEI | 0.688 ± 0.061
CFFVRLSSFYCS | 0.63 ± 0.0089
MSGVWLWVGGGG | 0.73 ± 0.078
EWRWCESKIITV | 0.625 ± 0.028
PSPPPFPPIPFC | 0.708 ± 0.048
VTCALGIGGVGV | 0.716 ± 0.05
INARCNRTIVRP | 0.646 ± 0.021
YGKELRRCKWVF | 0.581 ± 0.0072
ATKKRKKKNKQT | 0.756 ± 0.11
KNWRMKKDHKQA | 0.657 ± 0.024
DCSCCGGVSCVV | 0.639 ± 0.014
PGPKAAHSKRDR | 0.662 ± 0.058
GMSFALSVYFFP | 0.601 ± 0.01
PPPLSPSFIPPP | 0.698 ± 0.042
PHPAPRRPPLPP | 0.687 ± 0.05
HPFLPLFYHFPF | 0.733 ± 0.037
WLWYLSTRHSKL | 0.7871 ± 0.0037
IGWCPASFMVIG | 0.585 ± 0.049
LFIGKEGWVACL | 0.562 ± 0.019
GAWCSTGENDTA | 0.677 ± 0.059
PPPTSPRSPVPI | 0.697 ± 0.021
VPVRLRSGGVSP | 0.66 ± 0.058

Sequence | protein stability index
VLPPLPGPPTLS | 0.6945 ± 0.0033
APRPPSLSPSPP | 0.681 ± 0.0076
LWGMSDQGGGFR | 0.611 ± 0.083
APKVICPHLIRL | 0.68 ± 0.013
LYIYSPFGLFAF | 0.562 ± 0.0082
RLRGLLSPVGPQ | 0.716 ± 0.047
KKEQKFKEDSDR | 0.677 ± 0.019
HFPPPPRPSAPP | 0.681 ± 0.036
LEVHQGYLSSCH | 0.676 ± 0.12
SCSICLWVGHGC | 0.656 ± 0.028
GKRLRFNRRTRA | 0.662 ± 0.11
VALFIRITKHEY | 0.549 ± 0.027
PPPPPPPPPDPA | 0.666 ± 0.013
ISLVMLLKDAWR | 0.695 ± 0.019
GGCFGGVGVGSG | 0.7122 ± 0.0045
GPTSTETYKEVG | 0.671 ± 0.0011
GRSGGGTGAPSR | 0.637 ± 0.061
LVSGRRWMLGSG | 0.6451 ± 0.0023
PRSAPPPPNSLF | 0.656 ± 0.035
WYCRWWGVRGGH | 0.672 ± 0.1
PVQNVGAEVRPA | 0.683 ± 0.0094
